Test [1] concerns the target FpvAI (ferripyoverdine transporter of P. aeruginosa PAO1), recombinant (P. aeruginosa PAO1).
For test [2], the target named is TonB1 periplasmic domain (residues 109–342) (P. aeruginosa). In words: ITC.
For test [3], the target named is FpvAI (ferripyoverdine transporter of P. aeruginosa PAO1), recombinant (P. aeruginosa PAO1). Briefly: ITC.

Results on two substances are retold here after article PMC5692591.

“Δ1–45 pyoS2^NTD (from UniProt Q06584 46-209) (domain or fragment)”: the fold decrease of binding against pyoS2^NTD in test [1] was found to be 1000 fold.

With “N-terminal domain of pyocin S2 (pyoS2^NTD), residues 1–209 (from UniProt Q06584 1-209) (domain or fragment)”, in test [2], the Kd came out at 1000 nM. Further, in test [3], the Kd turned out to be 0.24 nM, the dH is -15.8 kcal/mol and the stoichiometry N worked out at 0.78 sites.
